Measurements: the Human Domainome abundance scans (Beltran et al. 2025)

B1: SWI/SNF complex subunit SMARCC1, residues 620 to 663; numbered along this chain, Q92922 (parent)
chain: GREWTEQETLLLLEALEMYKDDWNKVSEHVGSRTQDECILHFLR

Variants of: B1
Assay: abundance fitness (aPCA) (normalised: wild type 0, dead -1); higher = more abundant; growth selection in yeast, the domain comes from the species named
Details: Homo sapiens

Abundance fitness, by site and new letter:
D36: Y -0.374, H -0.092, F -0.327, E -0.002, T -0.042, I -0.342, Q 0.041, G 0.039, S 0.021, M -0.375, V -0.354, R -0.017, P -0.083, L -0.383, A -0.034, C -0.126, W -0.299
Q35: T 0.044, M -0.061, V -0.017, L -0.077, Y -0.166, W -0.336, K 0.261, C 0.079, I -0.186, N 0.063, D 0.05, G 0.056, A -0.038, H 0.012, S 0.073, P -0.136, E -0.075
E37: Q -0.303, L -1.08, R -0.63, T -0.738, N -0.717, H -0.668, M -0.4, D 0.021, K -0.546, A -0.283, P -0.846, V -1.01, G -0.722, F -1.02, S -0.533
T34: I -0.4, P -0.222, F -0.783, E 0.314, W -0.416, D -0.036, Y -0.715, L -0.257, Q 0.199, K 0.165, G 0.03, V -0.119, N 0.075, R 0.137
L40: E 0.122, K 0.171, G 0.049, I -0.138, D 0.319, F -0.074, H 0.201, C 0.108, A 0.28
V30: Q -0.764, G -0.792, Y -1.05, T -0.419, N -0.79, H -1.1, R -0.847, A -0.97, C -0.277, P -0.635, L -0.131, S -0.757, M -0.019, E -1.18
I39: R 0.456, Y 0.117, F -0.043, G -0.004, L 0.142, W -0.333, N 0.35, K 0.564, S 0.32, M 0.217, P -0.378, A 0.178, Q 0.238, H 0.456, E 0.513
C38: L -0.5, W -0.79, V -0.348, Y -0.903, H -0.774, T -0.4, S -0.624, P -0.73, M -1.09, I -0.361, R -0.367, Q -0.514, D -0.296, A -0.572, G -0.778
S32: H -0.138, P -0.419, G 0.115, N 0.025, W -0.622, R -0.176, I -0.135, K 0.05, V -0.191, Q 0.032, T 0.203, Y -0.182, M -0.083, E 0.105, L -0.224, C -0.124, A -0.015
R33: T -0.464, V -0.387, H -0.251, C -0.944, I -0.885, S -0.678, A -0.285, E -0.319, W -0.404, K 0.037, P -0.653, M -0.585, N -0.884, Y -0.744, G -0.569, Q -1.01, L -0.832
H29: Y -0.014, V -0.349
G31: Q -0.518, C -0.009, M -0.059, Y -0.487, V -0.028, N -0.259, E 0.032, D -0.205, F -0.375, P -0.11, W -0.543, A -0.03, L -0.528, I -0.174, K 0.073
